# According to paper PMC9820559, “Investigation of the Fuzzy Complex between RSV Nucleoprotein and Phosphoprotein to Optimize an Inhibition Assay by Fluorescence Polarization” (International Journal of Molecular Sciences, 2022):
# Ends that are not written are not given here. * marks the point of attachment. dicyano BODIPY FL = CC1=CC(C)=[N+]2C1=Cc1ccc(CCC(=O)*)n1[B-]2(C#N)C#N; FITC = O=C1OC2(c3ccc(O)cc3Oc3cc(O)ccc32)c2ccc(NC(=S)*)cc21
# T1: RSV N-RNA complex (full-length N protein in ring-shaped complexes with bacterial RNA) (human respiratory syncytial virus, UniProt P03418 1-391)
# T1 construct: human RSV nucleoprotein N, full length; concentrations are of N protomer; also called N-RNA rings; source: in lysate for the co-purification; purified (glutathione-Sepharose, thrombin, Superdex 200) as N-RNA complex; copies: 10-11
# T1 sequence (looked up): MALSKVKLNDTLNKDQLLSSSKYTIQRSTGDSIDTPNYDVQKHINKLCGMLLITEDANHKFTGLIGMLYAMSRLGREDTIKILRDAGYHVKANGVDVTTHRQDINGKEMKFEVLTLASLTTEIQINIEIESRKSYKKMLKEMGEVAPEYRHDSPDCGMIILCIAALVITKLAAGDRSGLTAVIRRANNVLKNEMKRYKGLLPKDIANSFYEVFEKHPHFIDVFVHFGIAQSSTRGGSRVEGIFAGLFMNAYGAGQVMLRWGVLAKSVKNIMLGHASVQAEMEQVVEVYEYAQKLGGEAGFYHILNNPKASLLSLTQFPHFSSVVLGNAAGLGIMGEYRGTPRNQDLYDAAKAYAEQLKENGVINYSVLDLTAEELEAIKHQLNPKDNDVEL
# B1: P11 (unlabeled RSV P C-terminal 11-mer) (peptide)
# peptide: DSDNDLSLEDF
# notes: unlabeled peptide from which F11 was made; C-terminal 11 residues of RSV phosphoprotein P; also called P_(11SS); source: bought: GeneCust (synthetic peptide, >95% purity)
# B2: F_(11EE) (FTU-labelled RSV P 11-mer, Ser232Glu/Ser237Glu) (peptide)
# peptide: {FITC}-DEDNDLELEDF
# notes: C-terminal 11 residues of RSV phosphoprotein P with phosphomimetic glutamates at 232 and 237; source: synthetic peptide (Fmoc/tBu solid phase), FITC coupled in solution, HPLC purified
# B3: BCN_(11EE) (dicyano BODIPY FL-labelled RSV P 11-mer, Ser232Glu/Ser237Glu) (peptide)
# peptide: {dicyano BODIPY FL}-DEDNDLELEDF
# notes: C-terminal 11 residues of RSV phosphoprotein P with phosphomimetic glutamates at 232 and 237; source: synthetic peptide (Fmoc/tBu solid phase, dicyano BODIPY FL coupled on resin, RP-HPLC purified)
# B4: F5E (FTU-labelled RSV P 5-mer, Ser237Glu) (peptide)
# peptide: {FITC}-ELEDF
# notes: C-terminal 5 residues of RSV phosphoprotein P with a phosphomimetic glutamate at 237; source: synthetic peptide (Fmoc/tBu solid phase), FITC coupled in solution, HPLC purified
# B5: P7E (unlabeled RSV P 7-mer, Ser237Glu) (peptide)
# peptide: DLELEDF
# notes: unlabeled peptide from which F7E was made; C-terminal 7 residues of RSV phosphoprotein P; source: synthetic peptide (Fmoc/tBu solid phase, RP-HPLC purified)
# B6: P9E (unlabeled RSV P 9-mer, Ser237Glu) (peptide)
# peptide: DNDLELEDF
# notes: unlabeled peptide from which F9E was made; C-terminal 9 residues of RSV phosphoprotein P; source: synthetic peptide (Fmoc/tBu solid phase, RP-HPLC purified)
# B7: BCN_(10EE) (dicyano BODIPY FL-labelled RSV P 10-mer, Ser232Glu/Ser237Glu) (peptide)
# peptide: {dicyano BODIPY FL}-EDNDLELEDF
# notes: C-terminal 10 residues of RSV phosphoprotein P with phosphomimetic glutamates at 232 and 237; also called B_(10EE); source: synthetic peptide (Fmoc/tBu solid phase, dicyano BODIPY FL coupled on resin, RP-HPLC purified)
# B8: P5E (unlabeled RSV P 5-mer, Ser237Glu) (peptide)
# peptide: ELEDF
# notes: unlabeled peptide from which F5E was made; C-terminal 5 residues of RSV phosphoprotein P; source: synthetic peptide (Fmoc/tBu solid phase, RP-HPLC purified)
# Assays:
# Conditions in all cases: both partners purified
# [1] = target: T1, RSV N-RNA complex (full-length N …); test: fluorescence polarisation; competition: unlabeled P peptide varied against 200 nM F11 on 10 µM N-RNA; Tris pH 8 without salt; Hill equation; Ki from the IC50-to-Ki server
# [2] = target: T1, RSV N-RNA complex (full-length N …); test: fluorescence polarisation; 200 nM FTU-labelled Fn peptide, N-RNA varied (up to 40 µM N); 20 mM Tris pH 8.0 without salt, 0.01% Brij-35; 20 °C; 30 min incubation; single site model, or with a linear contribution where marked (*)
# [3] = target: T1, RSV N-RNA complex (full-length N …); test: fluorescence polarisation; 200 nM dicyano BODIPY FL-labelled BCNn peptide, N-RNA varied; 20 mM Tris pH 8.0 with 100 mM NaCl, 0.01% Brij-35; 20 °C; single site model
# [4] = target: T1, RSV N-RNA complex (full-length N …); test: fluorescence polarisation; 200 nM dicyano BODIPY FL-labelled BCNn peptide, N-RNA varied; 20 mM Tris pH 8.0 without salt, 0.01% Brij-35; 20 °C; single site model
# [5] = target: T1, RSV N-RNA complex (full-length N …); test: fluorescence polarisation; competition: unlabeled P7E varied against 200 nM F7E on 10 µM N-RNA; Tris pH 8 without salt; Hill equation; Ki from the IC50-to-Ki server
# [6] = target: T1, RSV N-RNA complex (full-length N …); test: fluorescence polarisation; competition: unlabeled P5E varied against 200 nM F5E on 10 µM N-RNA; Tris pH 8 without salt; Hill equation; Ki from the IC50-to-Ki server
binder,measurement,setting,value
B1,IC50,[1],86 ± 7 µM
same,Ki,[1],34 µM
B2,Kd,[2],0.38 ± 0.12 µM
B3,Kd,[3],0.26 ± 0.04 µM
same,Kd,[4],0.28 ± 0.07 µM
B4,Kd,[2],5.9 ± 0.5 µM
B5,IC50,[1],180 ± 11 µM
same,Ki,[1],75 µM
same,IC50,[5],376 ± 26 µM
same,Ki,[5],74 µM
B6,IC50,[1],66 ± 6 µM
same,Ki,[1],25 µM
B7,Kd,[3],1.24 ± 0.31 µM
same,Kd,[4],0.16 ± 0.03 µM
B8,IC50,[6],433 ± 21 µM
same,Ki,[6],158 µM
